# Assay results published in article PMC9073325.
# Substrate: Nc1ncnc2c1ncn2[C@@H]1O[C@H](COP(=O)(O)OP(=O)(O)OP(=O)(O)O)[C@@H](O)[C@H]1O
# Assay: purified protein
# Details: pH 7.0; 25.0 °C
protein,measurement,value
SOBIR1-KD (Arabidopsis thaliana) (protein) SIFSPLIKKAEDLAFLENEEALASLEIIGRGGCGEVFKAELPGSNGKIIAVKKVIQPPKDADELTDEDSKFLNKKMRQIRSEINTVGHIRHRNLLPLLAHVSRPECHYLVYEYMEKGSLQDILTDVQAGNQELMWPARHKIALGIAAGLEYLHMDHNPRIIHRDLKPANVLLDDDMEARISDFGLAKAMPDAVTHITTSHVAGTVGYIAPEFYQTHKFTDKCDIYSFGVILGILVIGKLPSDEFFQHTDEMSLIKWMRNIITSENPSLAIDPKLMDQGFDEQMLLVLKIACYCTLDDPKQRPNSKDVRTMLSQIKH,Km,19.92 ± 0.69 µM
same,kcat,0.660 ± 0.006 s⁻¹
